The values that follow come from patent US20210284725A1 (Genentech, published 2021).

For one test, the target named is T1, human IL-33 (human, UniProt O95760 112-270, limits assumed).
T1 sequence (looked up): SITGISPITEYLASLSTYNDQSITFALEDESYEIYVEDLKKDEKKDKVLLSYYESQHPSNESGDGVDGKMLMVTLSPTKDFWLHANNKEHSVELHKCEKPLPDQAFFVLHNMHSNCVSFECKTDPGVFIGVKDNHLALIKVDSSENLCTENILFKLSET
Kind of test: cell-based or functional assay.

A further test concerns the target T2, cyno IL-33 (cynomolgus monkey, UniProt A0A2K5W3I1 112-269).
T2 sequence: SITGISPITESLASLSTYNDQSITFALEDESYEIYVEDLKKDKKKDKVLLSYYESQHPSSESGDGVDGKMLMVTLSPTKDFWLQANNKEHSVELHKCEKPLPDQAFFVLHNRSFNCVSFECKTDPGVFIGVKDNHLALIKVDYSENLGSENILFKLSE
Kind of test: cell-based or functional assay.

A further test has as its target T3, human IL-33 (His-tagged) (human, UniProt O95760 112-270, limits assumed).
T3 construct: not shown: His tag
T3 sequence (looked up): T1 sequence (looked up)
Nature of the test: SPR Biacore T200, antibody captured on anti-rat Fc, His-tagged IL-33 analyte, 25 C, 1:1 Langmuir. The procedure: (§1) The binding kinetics of top anti-IL-33 antibodies were measured using SPR on a BIACORE® T200 instrument (GE Healthcare). A CM5 Series S sensorchip was coated with anti-rat Fc (Jackson) to create a capture surface. Antibody binding was measured to human, cyno, rat, mouse and oxidized IL-33 (His-tagged) using a concentration series starting with 50 nM with 1:3 dilutions. Sensorgrams for binding of cytokine were recorded using an injection time of 2 min with a flow rate of 30 μl/min, at a temperature of 25° C., and with a running buffer of 10 mM HEPES, pH 7.4, 150 mM NaCl, 3 mM EDTA, and 0.005% TWEEN®20. After injection, disassociation of the IL-33 from the antibody was monitored for 10 min in running buffer. The surface was regenerated between binding cycles with a 30μ injection of 10 mM glycine HCl pH 1.7. After subtraction of a blank which contained running buffer only, sensorgrams observed for cytokine binding to anti-IL-33 antibody were analyzed using a 1:1 Langmuir binding model with software supplied by the manufacturer to calculate the kinetics and binding constants.
For orientation: In SPR one partner is held on a chip, and binding of the other changes the refractive index at the surface.

In the next test the target is T4, rat IL-33 (His-tagged) (rat, UniProt Q66H70 109-264, limits assumed).
T4 construct: not shown: His tag
T4 sequence (looked up): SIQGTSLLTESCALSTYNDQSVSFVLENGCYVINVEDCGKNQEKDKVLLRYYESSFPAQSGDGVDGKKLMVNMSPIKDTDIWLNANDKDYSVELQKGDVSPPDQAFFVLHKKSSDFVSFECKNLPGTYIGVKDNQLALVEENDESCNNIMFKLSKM
The description is as above. Here is the method: as §1

The target of another test is T5, mouse IL-33 (His-tagged) (mouse, UniProt Q8BVZ5 109-266).
T5 construct: also called murine IL-33; not shown: His tag
T5 sequence (looked up): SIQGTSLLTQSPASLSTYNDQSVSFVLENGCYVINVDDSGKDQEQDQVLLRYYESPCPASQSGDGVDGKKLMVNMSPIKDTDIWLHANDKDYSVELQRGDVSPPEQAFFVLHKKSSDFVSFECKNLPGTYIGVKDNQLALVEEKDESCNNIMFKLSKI
The description is as above. The procedure: as §1

The next test deals with T6, cyno IL-33 (His-tagged) (cynomolgus monkey, UniProt A0A2K5W3I1 112-269).
T6 construct: not shown: His tag
T6 sequence: T2 sequence
Described as above. Here is the method: as §1

B1: rat anti-human IL-33 hybridoma antibody 1E1 (antibody, V domains shown)
VH: EVQLVESGGGLVQPGTSLKLSCLASGFTFNNYWMTWIRQAPGKGLEWIASITYTGGGTYYPDSVKGRFTISRDDAKSTLYLQMNSLRSEDTATYYCTRANYYYNTYGGFPYWGQGTLVTVSS
VL: DIQMTQSPASLSASLGETVSIECLASEGFSNDLAWYQQKSGKSPQLLIYAASRLQDGVPSRFSGSGSGTRFSLKISGMQPEDEADYFCQQGSKYPLTFGSGTKLEIK
notes: Purified rat hybridoma IgG; also called clone 1E1; hybridoma derived clone 1E1
As for B1, the “IC50 (M), IL-33 neutralization activity, HEK-BLUE IL-33 cells (SEAP reporter), human IL-33 at 160 pM” value with human IL-33 is 3.6e-11 M. Besides, the “IC50 (M), IL-33 neutralization activity, HEK-BLUE IL-33 cells (SEAP reporter), cyno IL-33 at 300 pM” value in the test with cyno IL-33 was found to be 1.6e-10 M. Also, the Kd (in general, a measure of binding affinity in units of concentration) with human IL-33 (His-tagged) worked out at 0.021 nM; with rat IL-33 (His-tagged), 1.6 nM; with mouse IL-33 (His-tagged), 37.4 nM; in the test with cyno IL-33 (His-tagged), 0.0392 nM. For the same molecule, the koff (in general, the first-order rate constant of dissociation) in the test with human IL-33 (His-tagged) is 2.28e-05 s⁻¹; in the test with rat IL-33 (His-tagged), 0.000219 s⁻¹; in the test with mouse IL-33 (His-tagged) it was 0.00213 s⁻¹; with cyno IL-33 (His-tagged), 2.24e-05 s⁻¹. Besides, the kon (usually the rate constant with which the complex forms) in the test with human IL-33 (His-tagged) came to 1.08e+06 M⁻¹ s⁻¹; with rat IL-33 (His-tagged), 140000 M⁻¹ s⁻¹; with mouse IL-33 (His-tagged), 56800 M⁻¹ s⁻¹; with cyno IL-33 (His-tagged), 570000 M⁻¹ s⁻¹.
